According to patent publication US20170313754A1 (PROTAGONIST THERAPEUTICS, published 2017):
Numbered stars: 1 amine (or outer) side, 2 acyl side, 3 side chain; on linkers, the order of the positions; unused ones are H or OH. Bridge positions count the residues as written; N and C are the ends. Square brackets hold non-standard residues; d marks the D form. Primed or numbered codes have the meaning given here. Side chains are listed from the residue outwards. Ends that are not written are not given here. * marks the point of attachment. PEG3″ = NH2CH2CH2(OCH2CH2)3CH2CH2CO2H (PEG3 linker), NCCOCCOCCOCCCCC(=O)*; Ida = iminodiacetic acid, O=C(CN(CC(=O)[*:3])[*:1])[*:2]; γGlu = O=C(O)[C@H](CCC(=O)[*:2])N[*:1]; Palmitoyl = CCCCCCCCCCCCCCCC(=O)*; dapa = diaminopropionic acid; Lauroyl = CCCCCCCCCCCC(=O)*; Decanoyl = CCCCCCCCCC(=O)*; Isovaleryl = CC(C)CC(=O)*; Octanoyl = CCCCCCCC(=O)*; Albu = not defined here; Dap = NC[C@H](N)C(=O)O; Hexanoyl = CCCCCC(=O)*; Butyryl = CCCC(=O)*

T1: human ferroportin (SLC40A1) fused in frame with GFP, stably expressed in HEK293 cells (human, UniProt Q9NP59 1-571)
T1 sequence (looked up): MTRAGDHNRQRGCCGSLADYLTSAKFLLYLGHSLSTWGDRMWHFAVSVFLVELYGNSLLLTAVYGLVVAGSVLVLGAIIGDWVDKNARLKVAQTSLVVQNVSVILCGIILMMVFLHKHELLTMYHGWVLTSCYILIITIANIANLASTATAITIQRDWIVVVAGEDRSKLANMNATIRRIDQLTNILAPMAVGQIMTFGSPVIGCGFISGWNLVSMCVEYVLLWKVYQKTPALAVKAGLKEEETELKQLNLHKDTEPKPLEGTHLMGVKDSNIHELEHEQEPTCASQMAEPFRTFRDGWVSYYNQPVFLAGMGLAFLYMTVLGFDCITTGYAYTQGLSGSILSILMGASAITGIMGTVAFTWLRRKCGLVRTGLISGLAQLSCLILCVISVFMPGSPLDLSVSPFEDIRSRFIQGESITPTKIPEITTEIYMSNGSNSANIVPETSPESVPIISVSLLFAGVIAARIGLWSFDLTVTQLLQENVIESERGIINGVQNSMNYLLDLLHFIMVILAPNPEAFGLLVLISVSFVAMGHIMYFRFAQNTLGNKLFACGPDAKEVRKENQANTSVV


Biological target: T1, human ferroportin (SLC40A1) fused in …
Assay: cell-based or functional assay

Binder | Potency EC50 (nM), ferroportin-GFP internalization/degradation
H-DTHFPIAIICI-NH2 [Hy-DTHFPIAIICI-NH2] | > 10000 nM
Isovaleryl-DTHFPCIKFEPHSK(Albu)GCK-NH2 (not fully specified (bridges); cysteine pairing not given here; reading uncertain) [Isovaleric acid-DTHFPCIKFEPHS-K(Albu)-GCK-NH2] | 6 nM
Isovaleryl-DTHFPCIKFEPK([γGlu-Palmitoyl])SKGWECK-NH2 (not fully specified (bridges); cysteine pairing not given here) [Isovaleric acid-DTHFPCIKFEPK(isoGlu-Palm)-SKGWECK-NH2] | 8 nM
[Ida]THFPCIKFEPRSKGWVCK(Lauroyl)-NH2 (disulfide 6-18 (inferred)) [[Ida]-THFPCIKFEPRSKGWVC-K(lauric acid)-NH2] | 52 nM
Isovaleryl-DTHFPCIKFEPK([γGlu-Palmitoyl])SKGCK-NH2 (not fully specified (bridges); cysteine pairing not given here) [Isovaleric acid-DTHFPCIKFEP-K(isoglu-Palm)-SKGCK-NH2] | 5 nM
DTHFPCIKFKPRSKGWVC (not fully specified; N-terminal isovaleric acid; K(octanoic acid) at Lys 10; C-terminal amide) [Isovaleric acid-DTHFPCIKF-K(octanoic acid)-PRSKGWVC-NH2] | 30 nM
{Palmitoyl-PEG3″}-DTHFPCIKFGPRSKGWVCK-NH2 (disulfide 6-18 (inferred)) [Palm-PEG3-DTHFPCIKFGPRSKGWVCK-NH2] | > 1000 nM
Isovaleryl-DTHFPCIKFEPRSKK([γGlu-Palmitoyl])CK-NH2 (disulfide 6-16 (inferred)) [Isovaleric acid-DTHFPCIKFEPRSK-K(isoglu-Palm)-CK-NH2] | 4 nM
Isovaleryl-DTHFPCIK([dapa-Palmitoyl])FEPRSKGCK-NH2 (not fully specified (bridges); cysteine pairing not given here) [Isovaleric acid-DTHFPCI-K(dapa-Palm)-FEPRSKGCK-NH2] | 17 nM
H-DTHFPIAIFAAICI-NH2 [Hy-DTHFPIAIFAAICI-NH2] | > 10000 nM
Isovaleryl-ATHFPCIKFGPRSKGWVCK-NH2 (disulfide 6-18 (inferred)) [Isovaleric acid-ATHFPCIKFGPRSKGWVCK-NH2] | 60 nM
H-DTHFPIAIFAICI-NH2 [Hy-DTHFPIAIFAICI-NH2] | > 10000 nM
DTHFPCIKFKPRSKGWVC (not fully specified; N-terminal isovaleric acid; K(lauric acid) at Lys 10; C-terminal amide) [Isovaleric acid-DTHFPCIKF-K(lauric acid)-PRSKGWVC-NH2] | 10 nM
DTHFPCIKFEPRSKGCKK (N-terminal isovaleric acid; K(isoglu-Palm) at Lys 18; C-terminal amide) [Isovaleric acid-DTHFPCIKFEPRSKGCK-K(isoglu-Palm)-NH2] | 4 nM
Isovaleryl-DTHFPCIKFEPRSKKWVCK-NH2 (disulfide 6-18 (inferred)) [Isovaleric acid-DTHFPCIKFEPRSKKWVCK-NH2] | 15 nM
Isovaleryl-HFPCIKFEPRSKGWVCK(Octanoyl)-NH2 (disulfide 4-16 (inferred)) [Isovaleric acid-HFPCIKFEPRSKGWVC-K(octanoic acid)-NH2] | > 300 nM
Isovaleryl-DTHFPCIKFEPRSKGCK([Dap-Palmitoyl])K-NH2 (disulfide 6-16 (inferred)) [Isovaleric acid-DTHFPCIKFEPRSKGC-K(dapa-Palm)-K-NH2] | 10 nM
DTHFPCIKFKPRSKGWVC (N-terminal isovaleric acid; K(decanoic acid) at Lys 10; C-terminal amide) [Isovaleric acid-DTHFPCIKF-K(decanoic acid)-PRSKGWVC-NH2] | 22 nM
DTHFPCIKFKPRSKGWVC (N-terminal isovaleric acid; K(butyric acid) at Lys 10; C-terminal amide) [Isovaleric acid-DTHFPCIKF-K(butyric acid)-PRSKGWVC-NH2] | 37 nM
Isovaleryl-DTHFPCIKAGPRSKGWVCK-NH2 (not fully specified (bridges); cysteine pairing not given here) [Isovaleric acid-DTHFPCIKAGPRSKGWVCK-NH2] | 50 nM

Binder | Potency EC50 (nM), ferroportin-GFP internalization/degradation
[Ida]THFPCIKFEPRSKGWVCK(Decanoyl)-NH2 (disulfide 6-18 (inferred)) [[Ida]-THFPCIKFEPRSKGWVC-K(decanoic acid)-NH2] | 116 nM
[Ida]THFPCIKFEPRSKGWVCK(mysteric acid)-NH2 (disulfide 6-18 (inferred)) [Ida-THFPCIKFEPRSKGWVC-K(mysteric acid)-NH2] | 20 nM
DTHFPCIKFKPRSKGWVC (N-terminal isovaleric acid; K(hexanoic acid) at Lys 10; C-terminal amide) [Isovaleric acid-DTHFPCIKF-K(hexanoic acid)-PRSKGWVC-NH2] | 21 nM
Isovaleryl-DTHFPCIKFEPK([Dap-Palmitoyl])SKGCK-NH2 (not fully specified (bridges); cysteine pairing not given here) [Isovaleric acid-DTHFPCIKFEP-K(dapa-Palm)-SKGCK-NH2] | 10 nM
[Ida]THFPCIKFEPRSKGWVCK(Octanoyl)-NH2 (not fully specified (bridges); cysteine pairing not given here) [[Ida]-THFPCIKFEPRSKGWVC-K(octanoic acid)-NH2] | 129 nM
Isovaleryl-DTHAPCIKFEPRSKGWECK-NH2 (not fully specified (bridges); cysteine pairing not given here) [Isovaleric acid-DTHAPCIKFEPRSKGWECK-NH2] | > 10000 nM
Isovaleryl-DTHAPCIKFGPRSKGWVCK-NH2 (not fully specified (bridges); cysteine pairing not given here) [Isovaleric acid-DTHAPCIKFGPRSKGWVCK-NH2] | > 500 nM
[Ida]THFPCIKFEPRSKGWVCK(Ac)-NH2 (disulfide 6-18 (inferred)) [[Ida]-THFPCIKFEPRSKGWVC-K(Ac)-NH2] | 502 nM
H-DTHFPCIKFGPRSKGWVCK-NH2 (disulfide 6-18 (inferred)) [Hy-DTHFPCIKFGPRSKGWVCK-NH2] | > 1000 nM
[Ida]THFPCIKFEPRSKGWVCK(Hexanoyl)-NH2 (disulfide 6-18 (inferred)) [[Ida]-THFPCIKFEPRSKGWVC-K(hexanoic acid)-NH2] | 191 nM
DTHFPCIKFKPRSKGWECK (N-terminal isovaleric acid; K(isoGlu-Palm) at Lys 10; C-terminal amide) [Isovaleric acid-DTHFPCIKFK(isoGlu-Palm)-PRSKGWECK-NH2] | 6 nM
Isovaleryl-DTHFPCIKFEPRSK([Dap-Palmitoyl])GCK-NH2 (not fully specified (bridges); cysteine pairing not given here) [Isovaleric acid-DTHFPCIKFEPRS-K(dapa-Palm)-GCK-NH2] | 7 nM
[Ida]THFPCIKFEPRSKGWVCK(Butyryl)-NH2 (disulfide 6-18 (inferred)) [[Ida]-THFPCIKFEPRSKGWVC-K(butyric acid)-NH2] | 355 nM
DTHFPCIKFKPRSKGWVC (N-terminal isovaleric acid; K(Ac) at Lys 10; C-terminal amide) [Isovaleric acid-DTHFPCIKF-K(Ac)-PRSKGWVC-NH2] | 29 nM
H-DTHFPIAIFICI-NH2 [Hy-DTHFPIAIFICI-NH2] | > 10000 nM
DTHFPCIKFKPRSKGWVC (not fully specified; N-terminal isovaleric acid; K(mysteric acid) at Lys 10; C-terminal amide) [Isovaleric acid-DTHFPCIKF-K(mysteric acid)-PRSKGWVC-NH2] | 7 nM
{4,4‑5,5‑6,6,6‑heptafluorohexanoic acid}-DTHFPCIKFGPRSKGWVCK-NH2 (disulfide 6-18 (inferred)) [4,4-5,5-6,6,6-Heptafluorohexanoic acid-DTHFPCIKFGPRSKGWVCK-NH2] | 480 nM
H-DTHFPIAIFAAGICI-NH2 [Hy-DTHFPIAIFAAGICI-NH2] | > 10000 nM
Palmitoyl-DTHFPCIKFGPRSKGWVCK-NH2 (disulfide 6-18 (inferred)) [Palm-DTHFPCIKFGPRSKGWVCK-NH2] | > 1000 nM
